Experimental data from patent US10654917B2, “Antibody molecules and peptide delivery systems for use in alzheimer's disease and related disorders” (TECHNOPHAGE, INVESTIGAÇĀO E DESENVOLVIMENTO EM …, priority 2015, dated 2020).

B1: #20: anti-BAP42 sdAb, SEQ ID NO: 2 (protein)
VHH: ELDLTQTPSSKSVPVGDTVTINCQASESVYSNNRLAWFQQKPGQPPKLLIYYASTLASGVPSRFKGSGSGTQFTLTISDVVCDDAATYYCAGYKSSTSDGIAFGGGTEVVVK
modifications: /note=“Description of Unknown rabbit immunoglobulin VL domain polypeptide”; /note=“#20”
B2: #2: anti-BAP42 sdAb, SEQ ID NO: 1 (antibody, V domains shown)
VL: ELVMTQTPSPVSAAVGGTVSISCQSSKSVYNNNWLSWFQQKPGQPPKLLIYSASTLASGVSSRFKGSGSGTQFTLTISDVQCDDAATYYCQGEFDCSGDCNVFGGGTELEIL
B3: #26: anti-BAP42 sdAb, SEQ ID NO: 18 (antibody, V domains shown)
VL: ELDLTQTPSPVSAAVGGTVTISCQSSESVYSNNRLAWYQQKPGQPPKLLIYLASSLASGVPSRFKGSGSGTQFTLTIRDLECDDAATYYCLGYRSGSDGDAFGGGTELEIL

Tests used:
[1] = CAT-fusion assay: chloramphenicol resistance as measure of sdAb stability; assay type: cell-based, E. coli
Source text: Clones were further selected for stability using a modified CAT-fusion assay, as previously described (see, e.g., WO 2008/136694 to Goncalves et al). Specifically, the CAT gene was amplified from pCAT (Stratagene) by PCR and inserted into pET-derived plasmid using EcoRI and SphI restriction sites to create the pE-CAT. The 5′PCR primer originally used to clone the variable domains was also designed to contain two sequential and different SfiI cloning sites, and an amber codon (TAG) just before the beginning of the CAT gene.
To clone single-domain antibody libraries fused into the CAT gene, SDVL fragments were generated by PCR from phagemid vectors selected by panning. The resulting SDVL PCR fragments were gel-purified, digested with the restriction endonuclease SfiI, and cloned independently into the appropriately SfiI-cut vector pE-CAT. The pSDVL-CAT constructs were under the control of the strong Lac promoter that also included an N-terminal His6 affinity tag and the ampicillin resistance gene. Alternatively, SDVL fragments may be cloned into readily available vectors designed to express cloned sequences as fusion proteins with CAT, e.g., the PCFN1 vector (see Maxwell, et al (1999) J Prot Sci 8:1908-1911, incorporated by reference in its entirety).
Chloramphenicol resistance assays were performed by transforming ER2783 cells (New England Biolabs, Inc) with each single domain CAT-fusion library. The transformation mixtures were inoculated into 5 mL of SOC and incubated at 37° C. for 1 hour. Next, 10 mL of SB medium with 3 μL of 100 mg/ml ampicillin was added to each library. A total of 15 mL of each culture was shaken for 1 hour at 37° C. Subsequently, 4.5 μL of 100 mg/ml ampicillin was added and cultures shaken for one hour at 37° C. Then 85 mL of SB medium with 85 μL of 100 mg/ml ampicillin was added and cultures grown overnight at 37° C. The following day, 600 μL of each culture was used to inoculate 20 mL of SB medium containing 100 μg/mL of ampicillin.
Expression of CAT-fusion single domain proteins was induced by addition of 0.5 mM IPTG when the optical density of cultures reached 0.9 (at […]). After 2 hours of incubation at 37° C., 100 μL aliquots of each library were plated on agar plates with IPTG (200 μg/mL) and various concentrations of chloramphenicol. Plates were incubated at 37° C. for 16-20 hours. The level of resistance was quantified as the highest level of chloramphenicol at which colonies appeared after the 37° C. incubation period. […] Results are shown in Table 6, below, where +++ indicates over 600 colonies detected; ++ indicates 400-600 colonies detected; + indicates 1-399 colonies detected; and − indicates no colonies detected at the corresponding chloramphenicol concentration. “sdAb2”, “sdAb6”, “sdAb20”, and “sdAb26” are sdAb candidates that bind BAP42 oligomers.

oligomeric form of BAP42 = target: T1, oligomeric form of BAP42 (Homo sapiens, UniProt P05067); assay: BIAcore binding profile to BAP42 oligomers
T1 construct: “beta-amyloid peptide 42”, or “beta-amyloid peptide 1-42”; oligomerised in house (1 mg/mL, stirring 16 h at 37 °C, retained on 5 kDa filter)
Source text: Anti-oligomer sdAbs where characterized further regarding their relative binding profile to BAP42 oligomers by BIAcore.
Results are showing in FIGS. 16A-16D, respectively (kinetic studies) and Tables 14-16, respectively (biodistribution studies), presented below.

[2] = design: species or system CD1 mice; conditions: mouse, in vivo
Procedure: The different antibody-peptide constructs were used in biodistribution assays, and results compared with the biodistribution of the respective DEN2C peptides (pepH1, pepH2, pepH3, and pepM′, chemically synthesized). […] After expression and purification, the sdAbs and sdAb-peptide constructs were conjugated to technetium (^99Tc) and a biodistribution assay was performed, as previously described.
Tables 14-16 show the biodistribution of different anti-BAP42 sdAbs and constructs thereof with different peptides (“pepH3”).

[3] = 10^0, [chloramphenicol] 0.03 mM
[4] = 10^0, [chloramphenicol] 0.06 mM
[5] = 10^0, [chloramphenicol] 0.25 mM
[6] = 10^0, [chloramphenicol] 0.31 mM
[7] = 10^0, [chloramphenicol] 0.62 mM
[8] = 10^0, [chloramphenicol] 1.24 mM
[9] = 10^0, [chloramphenicol] 1.86 mM
[10] = 10^0, [chloramphenicol] 2.48 mM
[11] = 10^−2, [chloramphenicol] 0.03 mM
[12] = 10^−2, [chloramphenicol] 0.06 mM
[13] = 10^−2, [chloramphenicol] 0.25 mM
[14] = 10^−2, [chloramphenicol] 0.31 mM
[15] = 10^−2, [chloramphenicol] 0.62 mM
[16] = 10^−2, [chloramphenicol] 1.24 mM
[17] = 10^−2, [chloramphenicol] 1.86 mM
[18] = 10^−2, [chloramphenicol] 2.48 mM

T1 sequence (P05067 672-713 limits assumed): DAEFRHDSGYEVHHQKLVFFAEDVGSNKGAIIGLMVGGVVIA

Molecule	colonies detected (CAT-fusion chloramphenicol resistance) [1, 3]	colonies detected (CAT-fusion chloramphenicol resistance) [1, 4]	colonies detected (CAT-fusion chloramphenicol resistance) [1, 5]	colonies detected (CAT-fusion chloramphenicol resistance) [1, 6]	colonies detected (CAT-fusion chloramphenicol resistance) [1, 7]	colonies detected (CAT-fusion chloramphenicol resistance) [1, 8]	colonies detected (CAT-fusion chloramphenicol resistance) [1, 9]	colonies detected (CAT-fusion chloramphenicol resistance) [1, 10]	colonies detected (CAT-fusion chloramphenicol resistance) [1, 11]	colonies detected (CAT-fusion chloramphenicol resistance) [1, 12]	colonies detected (CAT-fusion chloramphenicol resistance) [1, 13]	colonies detected (CAT-fusion chloramphenicol resistance) [1, 14]	colonies detected (CAT-fusion chloramphenicol resistance) [1, 15]	colonies detected (CAT-fusion chloramphenicol resistance) [1, 16]	colonies detected (CAT-fusion chloramphenicol resistance) [1, 17]	colonies detected (CAT-fusion chloramphenicol resistance) [1, 18]	binding profile to the oligomeric form of BAP42 (oligomeric form of BAP42)	factor by which washout from the brain is slowed on linking to delivery peptide pepH3 [2]	factor of increase of presence in the brain on linking to delivery peptide pepH3 [2]
B1	+++ (+++ indicates over 600 colonies detected)	+++ (+++ indicates over 600 colonies detected)	+++ (+++ indicates over 600 colonies detected)	+++ (+++ indicates over 600 colonies detected)	+++ (+++ indicates over 600 colonies detected)	+++ (+++ indicates over 600 colonies detected)	+++ (+++ indicates over 600 colonies detected)	++ (++ indicates 400-600 colonies detected)	+++ (+++ indicates over 600 colonies detected)	+++ (+++ indicates over 600 colonies detected)	+++ (+++ indicates over 600 colonies detected)	+++ (+++ indicates over 600 colonies detected)	+++ (+++ indicates over 600 colonies detected)	+++ (+++ indicates over 600 colonies detected)	− (− indicates no colonies detected)	− (− indicates no colonies detected)	best binding profiles		
B2	+++ (+++ indicates over 600 colonies detected)	+++ (+++ indicates over 600 colonies detected)	+++ (+++ indicates over 600 colonies detected)	+++ (+++ indicates over 600 colonies detected)	+++ (+++ indicates over 600 colonies detected)	+++ (+++ indicates over 600 colonies detected)	+++ (+++ indicates over 600 colonies detected)	++ (++ indicates 400-600 colonies detected)	+++ (+++ indicates over 600 colonies detected)	+++ (+++ indicates over 600 colonies detected)	+++ (+++ indicates over 600 colonies detected)	+++ (+++ indicates over 600 colonies detected)	+++ (+++ indicates over 600 colonies detected)	+++ (+++ indicates over 600 colonies detected)	− (− indicates no colonies detected)	− (− indicates no colonies detected)	best binding profiles	about 2	about 3
B3	+++ (+++ indicates over 600 colonies detected)	+++ (+++ indicates over 600 colonies detected)	+++ (+++ indicates over 600 colonies detected)	+++ (+++ indicates over 600 colonies detected)	+++ (+++ indicates over 600 colonies detected)	+++ (+++ indicates over 600 colonies detected)	+++ (+++ indicates over 600 colonies detected)	++ (++ indicates 400-600 colonies detected)	+++ (+++ indicates over 600 colonies detected)	+++ (+++ indicates over 600 colonies detected)	+++ (+++ indicates over 600 colonies detected)	+++ (+++ indicates over 600 colonies detected)	+++ (+++ indicates over 600 colonies detected)	+++ (+++ indicates over 600 colonies detected)	− (− indicates no colonies detected)	− (− indicates no colonies detected)	best binding profiles		
